The supplement of paper PMC9942255
Values joined by “and” are separate entries in the source; they are usually repeats but may differ in a detail not shown here. Identical values can stand only once.

System: Bacillus subtilis DB104 (SP-AmyQ fusion secretion)
Assay: AmyQ secretion efficiency, weighted average sort bin (1 = best secretion, 10 = worst) (bin number (weighted average, 1-10)); higher = lower secretion efficiency
Procedure, shortened: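 Designed signal peptides were fused to mature AmyQ and expressed from the amyE locus in B. subtilis DB104, and this library was loaded at about 0.3 cells per ~65 nL alginate bead together with fluorescein-starch. After about 13 h of growth at room temperature and nile red staining, occupied beads were split into 10 equally populated bins by green/red fluorescence ratio using large-particle flow cytometry. Amplicons from every bin were Illumina-sequenced. The secretion score is the average bin number weighted by read frequency and normalised to beads per bin, excluding low-abundance sequences.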

MKKRLKRKRVLVPALIMSGITLIEANKK
AmyQ secretion efficiency: 6.77

MKKRMMMIMFFGPIILAFILFAGAIAIPS
AmyQ secretion efficiency: 7.34

MKKRQIAPGLLSAASLAFFAMSGSAQAAAY
AmyQ secretion efficiency: 4.58

MKKRRAIIIAIIAAVIVIAALITFNVRNASPG
AmyQ secretion efficiency: 5.35

MKKRRGRGSVLVPALIMSGITLIEANKK
AmyQ secretion efficiency: 7.89

MKKRRIVSILFMFGLVMGFSQFQPSTVFAADK
AmyQ secretion efficiency: 2.46

MKKRRKKLLAAGIIGLLTVSIASPSFAAEK
AmyQ secretion efficiency: 3.36

MKKRRKSFVAVAALSTTAFGAHASAKEI
AmyQ secretion efficiency: 6.63

MKKRRLIGFLVLVPALIMSGITLIEANKK
AmyQ secretion efficiency: 6.64

MKKRRLLAAGIIGLLTVSIASPSFAAEK
AmyQ secretion efficiency: 2.29 and 2.73

MKKRRRRIAMLILAGIALFVFISPLKSHKT
AmyQ secretion efficiency: 6.26

MKKRRSLIMMTGLLFGLTSPAFAAEK
AmyQ secretion efficiency: 3.58

MKKRRVLMAFIICLSLILSVLAAPPSGAKAESV
AmyQ secretion efficiency: 1.87

MKKRRYFIVFICFFVLFSVHPIAAAAADS
AmyQ secretion efficiency: 3.35

MKKRTIQVMIMFTLLLTMAFSADAADS
AmyQ secretion efficiency: 5

MKKRWRKTSQAAVLLLMVPKVSLADAA
AmyQ secretion efficiency: 7.38

MKKRYMAFIICLSLILSVLAAPPSGAKAESV
AmyQ secretion efficiency: 2

MKKSAAVLLSLGLVSGFSYGAGHVAEAKTK
AmyQ secretion efficiency: 2.59

MKKSGSCQKTLAVILSGVALTQLS
AmyQ secretion efficiency: 4.76

MKKSKQSGRLFLGLTPAGANAADL
AmyQ secretion efficiency: 6.97

MKKSMLAAAVLLSLGLVFGFSYGAGHVAEAKTK
AmyQ secretion efficiency: 2.84

MKKSQYFIVFICFFVLFSEHEEAAAAADS
AmyQ secretion efficiency: 4.11

MKKSQYFIVFICFFVLFSRHKKAAAAADS
AmyQ secretion efficiency: 6.2

MKKSQYFIVFICFFVLFSRRKHKRRAAAADS
AmyQ secretion efficiency: 7.81

MKKSQYFIVFICFFVLFSSHPDEAAAADS
AmyQ secretion efficiency: 4.15

MKKSQYFIVFICFFVLFSVHPIAAAAASS
AmyQ secretion efficiency: 2.35

MKKSQYFIVFICFFVLFSVHPIAAACADS
AmyQ secretion efficiency: 4.69

MKKSQYFIVFICFFVLFSVHPIAAAEADS
AmyQ secretion efficiency: 3.09

MKKSQYFIVFICFFVLFSVHPIAAAFADS
AmyQ secretion efficiency: 5.18

MKKSQYFIVFICFFVLFSVHPIAAAGADS
AmyQ secretion efficiency: 3.85

MKKSQYFIVFICFFVLFSVHPIAAANADS
AmyQ secretion efficiency: 4.12

MKKSQYFIVFICFFVLFSVHPIAAARADS
AmyQ secretion efficiency: 3.7

MKKSQYFIVFICFFVLFSVHPIAEAAADS
AmyQ secretion efficiency: 3.62

MKKSQYFIVFICFFVLFSVHPIAFTPSAAAADS
AmyQ secretion efficiency: 2.09

MKKSQYFIVFICFFVLFSVHPIAGAAADS
AmyQ secretion efficiency: 3.96

MKKSQYFIVFICFFVLFSVHPIALAAADS
AmyQ secretion efficiency: 3.9

MKKSQYFIVFICFFVLFSVHPIAPAAADS
AmyQ secretion efficiency: 4.14

MKKSQYFIVFICFFVLFSVHPIAQAAADS
AmyQ secretion efficiency: 4.87

MKKSQYFIVFICFFVLFSVHPIARAAADS
AmyQ secretion efficiency: 3.28

MKKSQYFIVFICFFVLFSVHPIASAAADS
AmyQ secretion efficiency: 4.61

MKKSQYFIVFICFFVLFSVHPIATAAADS
AmyQ secretion efficiency: 3.6

MKKSQYFIVFICFFVLFSVHPIAVAAADS
AmyQ secretion efficiency: 3.83

MKKSQYFKRRKCFFVLFSVHPIAAAAADS
AmyQ secretion efficiency: 9.07

MKKSQYFRKRRCKRVLFSVHPIAAAAADS
AmyQ secretion efficiency: 7.95

MKKSQYGGQTFGLVMGFSQFQPSTVFAADK
AmyQ secretion efficiency: 6.36

MKKSQYSRQSKCTFVLFSVHPIAAAAADS
AmyQ secretion efficiency: 7.33

MKKSQYTTLFIVFICFFVLFSVHPIAAAAADS
AmyQ secretion efficiency: 2.98

MKKSRRALLLLLFAFEPSASGKKL
AmyQ secretion efficiency: 7.28

MKKSSYCSYQRQVILSGVALTQLS
AmyQ secretion efficiency: 7.04

MKKSTRKYKILGALGTSYISADSS
AmyQ secretion efficiency: 7.69

MKKSYKATALFLGLTPAGANAADL
AmyQ secretion efficiency: 8.17

MKKTGIRFLLVSFVLFFALSTGITGVQAAPA
AmyQ secretion efficiency: 1.8

MKKTGQQLLSLGLVFGFSYGAGHVAEAKTK
AmyQ secretion efficiency: 3.07
